According to US20220073643A1 (NANJING GENSCRIPT BIOTECH, published 2022):
One block for each binder: values may come before it.

What was measured:
human Claudin18.2 [1] = molecular target: T1, human Claudin18.2 (human); test: FACS, Claudin18.2-HEK293 cells
T1 construct: also called CLDN18.2
Method: The binding of chimeric antibodies to Claudin18.2 expressed on HEK293 cells was determine by FACS analysis. Briefly, HEK293 cells expressing human Claudin18.2 as prepared in the foregoing Example were harvested and incubated with anti-Claudin18.2 mAbs at 4° C. for 40 min, followed by fluorophore (iFluor 647)-labeled goat […] IgG (H+L) secondary antibodies at 4° C. for 0.5 hour. The samples were then analyzed by flow cytometry.

human Claudin18.2 [2] = molecular target: T1, human Claudin18.2; test: cell-based or functional assay
human Claudin18.2 [3] = molecular target: T1, human Claudin18.2; test: cell-based or functional assay; remark: listed apart in the source

B2: chimeric 234B9D4 (antibody, human IgG1, kappa, V domains shown)
VH: EIQLQQSGPDLMKPGSSVKISCTASGYSFTSYYIHWVKQSHGKTLEWIGYIDPFNGGTRYNQKFEGKAALTVDKSSTTAYMHLTSLTSDDSAVYYCASLRFFTYWGQGTLVTVSA
VL: DIVMTQSPSSLTVTAGEKVTMTCKSSQSLLNSGNQENYLTWYQQKPGQPPKLLISRASTRQSGVPDRFTGSGSGTDFTLTISSVQAEDLAVYYCQNDYSYPLTFGAGTKLELKR
notes: chimeric, human IgG1/kappa constant regions
EC50 (human Claudin18.2 [1]): 2.6 nM

B3: chimeric 252F1B10 (antibody, human IgG1, kappa, V domains shown)
VH: QAYLQQSGAELVRSGASVKMSCKASGYTFTSHNMHWVKQTPGQGLEWIGYIYPGNGGTNYNQKFKGKATLTADTSSSTAYMQINSLTSEDSAVYFCTRDYYGNSFAYWGQGTLVTVSA
VL: DIVMTQSPSSLTEKAGERVSMSCKSSQSLFNSGNQKNYLTWYQQKPGQPPKLLIYWASTRESGVPDRFTGSGSGTDFTLTISSVQAEDLAVYYCQNDYRYPFTFGAGTKLELKR
notes: as for B2
EC50 (human Claudin18.2 [1]): 0.798 nM
ADCC % Relative activity (human Claudin18.2 [2]): 85.9%
ADCC EC50 (human Claudin18.2 [2]): 0.0357 µg/mL
CDC % Relative activity (human Claudin18.2 [3]): 937%
CDC EC50 (human Claudin18.2 [3]): 0.288 µg/mL

B6: chimeric 201F4H6 (antibody, human IgG1, kappa, V domains shown)
VH: QVQLKESGPGLVAPSQSLSITCTVSGFSLTSYGVSWVRQPPGKGLECLGVIWAGGNTNYNSALMSRLSISKDKSKSQVFLKMNSLQTDDTAMYYCARVYYGNAMDYWGQGTSVTVSS
VL: DIVMTQSPSSLTVTAGEKVTMSCKSSQSLLNSGNQKSYLTWYQQRPGQPPKLLIYWASTRESGVPDRFTGSGSGTDFTLTISSVQAEDLAVYFCQNVYFFPFTFGSGTKLETKR
notes: as for B2
EC50 (human Claudin18.2 [1]): 1.36 nM

Results, then the binder that gave them:

EC50 (human Claudin18.2 [1]): 0.796 nM
ADCC % Relative activity (human Claudin18.2 [2]): 83.6%
ADCC EC50 (human Claudin18.2 [2]): 0.0291 µg/mL
CDC % Relative activity (human Claudin18.2 [3]): 793%
CDC EC50 (human Claudin18.2 [3]): 0.34 µg/mL
B1: chimeric 194D3B2 (antibody, human IgG1, kappa, V domains shown)
VH: QAYLQQSGAELVRSGASVKMSCKASGYPFTSYNMHWVKQTPGQGLEWVGYIYPGNGGTNYNQKFRDKATLTADTSSSTAYMQISRLTSDDSAVYFCLTGRGFAYWGQGTLVTVSA
VL: DIVMTQSPSSLIVTPGERVTMSCKSSQSLLNSGNQKNYLTWYQQKPGQPPKLLIYRASTRESGVPDRFTGSGSGTDFTLTISSVQAEDLAVYYCQNDYSYPLTFGIGTKLELKR
notes: as for B2

EC50 (human Claudin18.2 [1]): 0.551 nM
ADCC % Relative activity (human Claudin18.2 [2]): 66.4%
ADCC EC50 (human Claudin18.2 [2]): 0.0367 µg/mL
CDC % Relative activity (human Claudin18.2 [3]): 1040%
CDC EC50 (human Claudin18.2 [3]): 0.261 µg/mL
B4: chimeric 203A6C9 (antibody, human IgG1, kappa, V domains shown)
VH: QVQLKQSGPGLVQPSQSLSITCTVSGFSLTRYGVHWVRQSPGKGLEWLGVIWSGGNTDYNAAFISRLNIRKDNSKSQVFFKMNSLKPNDTAIYYCARAAYFGNSFDYWGQGTTLTVSS
VL: DIVMTQSPSSLPVTAGEKVTMSCKSSQSLLNSGNQKNYLTWYQQKPGQPPKLLIYWASTRDSGVPDRFTGSGSGTDFTLTISSVQAEDLAVYYCQNNYIYPLTFGAGTKLELKR
notes: as for B2

EC50 (human Claudin18.2 [1]): 0.61 nM
ADCC % Relative activity (human Claudin18.2 [2]): 131%
ADCC EC50 (human Claudin18.2 [2]): 0.0276 µg/mL
CDC % Relative activity (human Claudin18.2 [3]): 1320%
CDC EC50 (human Claudin18.2 [3]): 0.205 µg/mL
B5: chimeric 222B6G5 (antibody, human IgG1, kappa, V domains shown)
VH: QTYLQQSGAELVRSGASVKMSCKASGYTFTSYNIHWVKQTPGQGLEWIGYISPGNGGTYYNLKFKDKATLTTATSSSTAYMQISSLTSEDSAVYFCATGRGFAYWGQGTLVTVSA
VL: DIVMTQSPSSLTVTPGEKVTMSCKSSQSLFNSGNQKNYLIWYQQKPGQPPKLLIYRASTRDSGVPDRFTGSGSGTDFTLTISNVQAEDLAVYYCQNDYSYPLTFGAGTKLELKR
notes: as for B2
